The target of assay [1] is rHuman CD44/Fc Chimera, CF (R&D Systems Cat#3660-CD) (human) (UniProt P16070). Description: ECL (MSD multi-spot), antigen spotted on plate; Fab […]; blank 428.
The target in assay [2] is rHuman ErbB2/Fc Chimera, CF (R&D Systems Cat#1129-ER) (human) (UniProt P04626). The assay is described as above.
The target in assay [3] is rHuman Erythropoietin R/Fc Chimera, CF (R&D Systems Cat#963-ER) (human) (UniProt P19235). The description is as above.
Assay [4] concerns the target rHuman Notch-1/Fc Chimera, CF (R&D Systems Cat#3647-TK) (human) (UniProt P46531). Described as above.
Assay [5] concerns the target rHuman P-Cadherin/Fc Chimera, CF (R&D Systems Cat#861-PC) (human) (UniProt P22223). Described as above.
Assay [6] deals with rHuman CD44/Fc Chimera, CF (R&D Systems Cat#3660-CD) (human) (UniProt P16070). Briefly: ECL (MSD multi-spot), antigen spotted on plate; Fab 8 nM; blank 1188.
The target of assay [7] is rHuman ErbB2/Fc Chimera, CF (R&D Systems Cat#1129-ER) (human) (UniProt P04626). The description is as above.
The target of assay [8] is rHuman Erythropoietin R/Fc Chimera, CF (R&D Systems Cat#963-ER) (human) (UniProt P19235). The description is as above.
The target of assay [9] is rHuman Notch-1/Fc Chimera, CF (R&D Systems Cat#3647-TK) (human) (UniProt P46531). The assay is described as above.
The target in assay [10] is rHuman P-Cadherin/Fc Chimera, CF (R&D Systems Cat#861-PC) (human) (UniProt P22223). The assay is described as above.
Assay [11] concerns the target rHuman CD44/Fc Chimera, CF (R&D Systems Cat#3660-CD) (human) (UniProt P16070). Briefly: ECL (MSD multi-spot), antigen spotted on plate; Fab 1.6 nM; blank 648.
In assay [12] the target is rHuman ErbB2/Fc Chimera, CF (R&D Systems Cat#1129-ER) (human) (UniProt P04626). The assay is described as above.
In assay [13] the target is rHuman Erythropoietin R/Fc Chimera, CF (R&D Systems Cat#963-ER) (human) (UniProt P19235). Described as above.
For assay [14], the target named is rHuman Notch-1/Fc Chimera, CF (R&D Systems Cat#3647-TK) (human) (UniProt P46531). The assay is described as above.
Assay [15] deals with rHuman P-Cadherin/Fc Chimera, CF (R&D Systems Cat#861-PC) (human) (UniProt P22223). The description is as above.
Assay [16] addresses rHuman CD44/Fc Chimera, CF (R&D Systems Cat#3660-CD) (human) (UniProt P16070). Briefly: ECL (MSD multi-spot), antigen spotted on plate; Fab 40 nM; blank 1229.
Assay [17] deals with rHuman ErbB2/Fc Chimera, CF (R&D Systems Cat#1129-ER) (human) (UniProt P04626). The assay is described as above.
In assay [18] the target is rHuman Erythropoietin R/Fc Chimera, CF (R&D Systems Cat#963-ER) (human) (UniProt P19235). The assay is described as above.
Assay [19] deals with rHuman Notch-1/Fc Chimera, CF (R&D Systems Cat#3647-TK) (human) (UniProt P46531). Described as above.
Assay [20] concerns the target rHuman P-Cadherin/Fc Chimera, CF (R&D Systems Cat#861-PC) (human) (UniProt P22223). Described as above.
Assay [21] has as its target rHuman CD44/Fc Chimera, CF (R&D Systems Cat#3660-CD) (human) (UniProt P16070). Description: ECL (MSD multi-spot), antigen spotted on plate; Fab 200 nM; blank 1659.
In assay [22] the target is rHuman ErbB2/Fc Chimera, CF (R&D Systems Cat#1129-ER) (human) (UniProt P04626). The description is as above.
Assay [23] concerns the target rHuman Erythropoietin R/Fc Chimera, CF (R&D Systems Cat#963-ER) (human) (UniProt P19235). The assay is described as above.
Assay [24] concerns the target rHuman Notch-1/Fc Chimera, CF (R&D Systems Cat#3647-TK) (human) (UniProt P46531). Described as above.
In assay [25] the target is rHuman P-Cadherin/Fc Chimera, CF (R&D Systems Cat#861-PC) (human) (UniProt P22223). The description is as above.
Assay [26] addresses rHuman CD44/Fc Chimera, CF (R&D Systems Cat#3660-CD) (human) (UniProt P16070). Description: ECL (MSD multi-spot), antigen spotted on plate; Fab 1000 nM; blank 2142.
For assay [27], the target named is rHuman ErbB2/Fc Chimera, CF (R&D Systems Cat#1129-ER) (human) (UniProt P04626). The description is as above.
For assay [28], the target named is rHuman Erythropoietin R/Fc Chimera, CF (R&D Systems Cat#963-ER) (human) (UniProt P19235). The assay is described as above.
Assay [29] addresses rHuman Notch-1/Fc Chimera, CF (R&D Systems Cat#3647-TK) (human) (UniProt P46531). The assay is described as above.
For assay [30], the target named is rHuman P-Cadherin/Fc Chimera, CF (R&D Systems Cat#861-PC) (human) (UniProt P22223). The assay is described as above.
For assay [31] the target is unchanged. Description: ECL (MSD Multi-Spot) binding assay, antigen spotted on plate; Fab 6 nM; blank spot 191.
The target is the same in assay [32]. Briefly: ECL (MSD Multi-Spot) binding assay, antigen spotted on plate; Fab 17 nM; blank spot 143.
For assay [33] the target is unchanged. Description: ECL (MSD Multi-Spot) binding assay, antigen spotted on plate; Fab 51 nM; blank spot 335.
Assay [34] shares this target. Description: ECL (MSD Multi-Spot) binding assay, antigen spotted on plate; Fab 154 nM; blank spot 447.

rHuman Erythropoietin R/Fc Chimera, CF (R&D Systems Cat#963-ER) (human), sequence (P19235 25-250, change not shown): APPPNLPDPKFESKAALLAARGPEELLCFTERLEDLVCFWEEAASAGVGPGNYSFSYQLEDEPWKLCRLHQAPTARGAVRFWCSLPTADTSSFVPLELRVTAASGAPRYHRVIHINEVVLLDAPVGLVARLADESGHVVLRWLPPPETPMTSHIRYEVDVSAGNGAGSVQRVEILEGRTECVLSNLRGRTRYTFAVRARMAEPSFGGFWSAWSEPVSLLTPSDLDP

Consider “Fab VH1-46_IGHD6-6*01_IGHJ1*01_S104A & L6_IGKJ1*01”, for which the ECL signal in assay [1] came to 684; in assay [2] it was 766; in assay [3], 739; in assay [4], 739; in [5], 649; in assay [6], 1490. The ECL signal in [7] was determined as 1900; in [8] it was 1980; in assay [9], 2200; in assay [10], 1920; in [11] it was 1020; in [12] it was 1170. Moreover, the ECL signal in [13] worked out at 1120; in [14], 1170; in [15], 1140; in [16], 2680; in assay [17], 2230; in assay [18] it was 3510. The ECL signal in assay [19] was determined as 3480; in assay [20], 2600; in [21], 3190; in assay [22] it was 4040; in [23], 4000; in assay [24], 5700. The ECL signal in assay [25] was found to be 3990; in [26] it was 4730; in [27], 7420; in assay [28] it was 8290; in assay [29] it was 8060; in [30] it was 5630.
Consider “Fab VH5-51_IGHD5-18*01>3_IGHJ4*01 & V3-4_IGLJ1*01”, for which the ECL signal in [31] came to 358; in assay [32] it was 542; in assay [33], 854; in assay [34], 1730.

The record behind these values is patent US20120058906A1.
